Measurements reported in article PMC7072198 (2020).

B1: recombinant Lingzhi-8 (rLZ-8), wild type (natural protein)
chain: MSDTALIFRLAWDVKKLSFDYTPNWGRGNPNNFIDTVTFPKVLTDKAYTYRVAVSGRNLGVKPSYAVESDGSQKVNFLEYNSGYGIADTNTIQVFVVDPDTNNDFIIAQWN
B2: rLZ-8^(Mut 3) (K16A/S18A/K41A/D45A) (natural protein)
chain: SDTALIFRLAWDVKALAFDYTPNWGRGNPNNFIDTVTFPAVLTAKAYTYRVAVSGRNLGVKPSYAVESDGSQKVNFLEYNSGYGIADTNTIQVFVVDPDTNNDFIIAQWN

Target: EGFR extracellular domain (ECD), wild type (human, UniProt P00533 25-645)
Experiment: SPR

Binder | Kd [nM]
B1 | 4.75
B2 | 9.22
